Reference: paper PMC2665295 (Biochemistry, 2008)
Read-outs that look alike come from different tables or passages of the source.

How the values were obtained:
Assay in all cases: ITC
[1] = target: T1, CaMN composed of amino acids 1–75 (UniProt P0DP23 2-76)
[2] = target: T2, CaMN composed of amino acids 1–80 (UniProt P0DP23 2-81)
[3] = target: T3, CaMC composed of amino acids 76–148 (UniProt P0DP23 77-149)
[4] = target: T1, CaMN composed of amino acids 1–75; remark: listed apart in the source
[5] = target: T2, CaMN composed of amino acids 1–80; remark: listed apart in the source
[6] = target: T3, CaMC composed of amino acids 76–148; remark: listed apart in the source
wild-type calmodulin = wild-type calmodulin (UniProt P0DP23 1-149)
[7] = target: T1, CaMN composed of amino acids 1–75; remark: listed apart in the source
[8] = target: T2, CaMN composed of amino acids 1–80; remark: listed apart in the source
[9] = target: T3, CaMC composed of amino acids 76–148; remark: listed apart in the source
[10] = target: T1, CaMN composed of amino acids 1–75; remark: listed apart in the source
[11] = target: T2, CaMN composed of amino acids 1–80; remark: listed apart in the source
[12] = target: T3, CaMC composed of amino acids 76–148; remark: listed apart in the source

Kd [1]: 280 nM
dH [1]: 1.9 kcal/mol
dH1 (binding mode 1) [2]: 3.9 kcal/mol
dH2 (binding mode 2) [2]: 5.7 kcal/mol
dH1 (binding mode 1) [3]: -3.6 kcal/mol
dH2 (binding mode 2) [3]: 6.8 kcal/mol
Kd [4]: 500 nM
dH [4]: -0.2 kcal/mol
dH1 (binding mode 1) [5]: -0.3 kcal/mol
dH2 (binding mode 2) [5]: 2.4 kcal/mol
dH1 (binding mode 1) [6]: -7.7 kcal/mol
dH2 (binding mode 2) [6]: 7.6 kcal/mol
Kd (wild-type calmodulin): 0.07 pM
dH (wild-type calmodulin): -6.1 kcal/mol
Kd [7]: 360 nM
dH [7]: -2.5 kcal/mol
dH1 (binding mode 1) [8]: -3.1 kcal/mol
dH2 (binding mode 2) [8]: -3.8 kcal/mol
dH1 (binding mode 1) [9]: -11.8 kcal/mol
dH2 (binding mode 2) [9]: 5.4 kcal/mol
Kd [10]: 710 nM
dH [10]: -5.1 kcal/mol
dH1 (binding mode 1) [11]: -6.5 kcal/mol
dH2 (binding mode 2) [11]: -8.5 kcal/mol
dH1 (binding mode 1) [12]: -15.5 kcal/mol
dH2 (binding mode 2) [12]: 1.7 kcal/mol
Binder: Ac-KKFNARRKLKGAILTTMLATRN-NH2 [CaMKII(291–312) peptide]
